Substitutions are numbered along the chain they refer to.
T1: recombinant human TIGIT (human, UniProt Q495A1 22-141, limits assumed)
T1 construct: recombinant human TIGIT used in Carterra SPR; also called hTIGIT
T1 sequence (looked up): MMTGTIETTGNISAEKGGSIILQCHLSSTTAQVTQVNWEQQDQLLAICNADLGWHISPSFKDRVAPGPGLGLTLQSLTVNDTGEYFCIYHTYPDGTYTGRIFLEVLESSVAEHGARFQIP

B1: TIGIT-SC52 (Fc fusion)
VHH: EVQLVESGGGLVQPGGSLRLSCAASGFLFDSYAMGWFRQAPGKEREFVAAISTGGGWRTYADSVKGRFTISADNSKNTAYLQMNSLKPEDTAVYYCAKRGNDNWYFDLWGQGTLVTVSS
notes: VHH-Fc fusion in assay
B2: TIGIT-SC41 (Fc fusion)
VHH: EVQLVESGGGLVQPGGSLRLSCAASGMTTIGPMGWFRQAPGKEREFVASIAWGDGNTYYADSVKGRFTISADNSKNTAYLQMNSLKPEDTAVYYCVRGGSRTLWGQGTLVTVSS
notes: VHH-Fc fusion in assay
B3: TIGIT-SC180 (Fc fusion)
VHH: EVQLVESGGGLVQPGGSLRLSCAASGFTLNDYAMGWFRQAPGKERELVAWIARYDGSTLYADSVKGRFTISADNSKNTAYLQMNSLKPEDTAVYYCASEVASGETDYWGQGTLVTVSS
notes: VHH-Fc fusion in assay
B4: TIGIT-SC2 (Fc fusion)
VHH: EVQLVESGGGLVQPGGSLRLSCAASGFTLSSNWMGWFRQAPGKEREMVAAIDWSGGSALYADSVKGRFTISADNSKNTAYLQMNSLKPEDTAVYYCAKDALSNSARFDHWGQGTLVTVSS
notes: VHH-Fc fusion in assay
B5: TIGIT-SC124 (Fc fusion)
VHH: B4 VHH with F27S, T28I, L29F
notes: VHH-Fc fusion in assay
B6: TIGIT-SC125 (Fc fusion)
VHH: B4 VHH with S31G
notes: VHH-Fc fusion in assay
B7: TIGIT-SC136 (Fc fusion)
VHH: EVQLVESGGGLVQPGGSLRLSCAASGFTLENNMMGWFRQAPGKEREFVAAISRSGTLKAYADSVKGRFTISADNSKNTAYLQMNSLKPEDTAVYYCARGGELTTFYFGYWGQGTLVTVSS
notes: VHH-Fc fusion in assay
B8: TIGIT-SC150 (Fc fusion)
VHH: EVQLVESGGGLVQPGGSLRLSCAASGFTLENNMMGWFRQAPGKEREFVAAISRSGTLKAYADSVKGRFTISADNSKNTAYLQVNSLKPEDTAVYYCVRVRGYSGYDCDYWGQGTLVTVSS
notes: VHH-Fc fusion in assay
B9: TIGIT-SC119 (Fc fusion)
VHH: EVQLVESGGGLVQPGGSLRLSCAASGNTFSGGFMGWFRQAPGKEREWVASVLRGGYTWYADSVKGRFTISADNSKNTAYLQMNSLKPEDTAVYYCAKDGGWFDPWGQGTLVTVSS
notes: VHH-Fc fusion in assay
B10: TIGIT-SC120 (Fc fusion)
VHH: B9 VHH with N27F, G31P, G32S, F33W
notes: VHH-Fc fusion in assay
B11: TIGIT-SC37 (Fc fusion)
VHH: B9 VHH with A96V, K97F, D98G, G100V, F102Q, P104V
notes: VHH-Fc fusion in assay
B12: TIGIT-SC165 (Fc fusion)
VHH: B9 VHH with A96T, K97T, D98E, G100S, W101G, F102W, D103R, P104N
notes: VHH-Fc fusion in assay
B13: TIGIT-SC17 (Fc fusion)
VHH: B9 VHH with N27F, T28D, G31V, G32S, F33W, K97R, D98E, G100S, P104Y
notes: VHH-Fc fusion in assay
B14: TIGIT-SC190 (Fc fusion)
VHH: EVQLVESGGGLVQPGGSLRLSCAASGFTFDRSWMGWFRQAPGKEREWVASVLRGGYTWYADSVKGRFTISADNSKNTAYLQMNSLKPEDTAVYYCVTDVGAPDYWGQGTLVTVSS
notes: VHH-Fc fusion in assay
B15: TIGIT-SC189 (Fc fusion)
VHH: B14 VHH with F27N, D30S, R31G, S32G, W33F
notes: VHH-Fc fusion in assay
B16: TIGIT-SC126 (Fc fusion)
VHH: EVQLVESGGGLVQPGGSLRLSCAASGSIFSGNVMGWFRQAPGKERELVAAISNSASSTVYADSVKGRFTISADNSKNTAYLQMNSLKPEDTAVYYCARDWNLFDYWGQGTLVTVSS
notes: VHH-Fc fusion in assay
B17: TIGIT-SC127 (Fc fusion)
VHH: B16 VHH with V33A
notes: VHH-Fc fusion in assay
B18: TIGIT-SC64 (Fc fusion)
VHH: EVQLVESGGGLVQPGGSLRLSCAASGFAFSNFGMGWFRQAPGKERELVSAIGWSGASTYYADSVKGRFTISADNSKNTAYLQMNSLKPEDTAVYYCARRGRTIPFDYWGQGTLVTVSS
notes: VHH-Fc fusion in assay
B19: TIGIT-SC151 (Fc fusion)
VHH: EVQLVESGGGLVQPGGSLRLSCAASGFPFSIYPMGWFRQAPGKEREFVAAISASGTLRAYADSVKGRFTISADNSKNTAYLQMNSLKPEDTAVYYCARSSSWVRIFDYWGQGTLVTVSS
notes: VHH-Fc fusion in assay
B20: TIGIT-SC212 (Fc fusion)
VHH: EVQLVESGGGLVQPGGSLRLSCAASGFLFDSYAMGWFRQAPGKEREFVAAIWRSGTLKAYADSVKGRFTISADNSKNTAYLQMNSLKPEDTAVYYCARWVGASGDYWIDYWGQGTLVTVSS
notes: VHH-Fc fusion in assay
B21: TIGIT-SC206 (Fc fusion)
VHH: EVQLVESGGGLVQPGGSLRLSCAASGFLFDSYVMGWFRQAPGKEREFVAAIWRSGTLKAYADSVKGRFTISADNSKNTAYLQMNGLKPEDTAVYYCAGVGTDYGDYLFNYWGQGTLVTVSS
notes: VHH-Fc fusion in assay
B22: TIGIT-SC213 (Fc fusion)
VHH: B20 VHH with F27T, L28F, F29Q, D30R, S31I, Y32N
notes: VHH-Fc fusion in assay
B23: TIGIT-SC32 (Fc fusion)
VHH: EVQLVESGGGLVQPGGSLRLSCAASGFAFGDSWMGWFRQAPGKERELVAAIDWSGGSALYADSVKGRFTISADNSKNTALQMNSLKPEDTAVYYCAKVHSDFRAGWDVWGQGTLVTVSS
notes: VHH-Fc fusion in assay
B24: TIGIT-SC22 (Fc fusion)
VHH: EVQLVESGGGLVQPGGSLRLSCAASGFTLENNMMGWFRQAPGKEREMVAAISWSGGSALYADSVKGRFTISADNSKNTAYLQMNSLKPEDTAVYYCARGDGYSYGNFDYWGQGTLVTVSS
notes: VHH-Fc fusion in assay
B25: TIGIT-SC167 (Fc fusion)
VHH: EVQLVESGGGLVQPGGSLRLSCAASGRTFSFMGWFRQAPGKEREWVASVLRGGYTWYADSVKGRFTISADNSKNTAYLQMNSLKPEDTAVYYCAREGSGYASDYWGQGTLVTVSS
notes: VHH-Fc fusion in assay
B26: TIGIT-SC185 (Fc fusion)
VHH: EVQLVESGGGLVQPGGSLRLSCAASGRTFSFMGWFRQAPGKEREWVASVLRGGYTWYADSVKGRFTISADNSKNTAYLQMNSLKPEDTAVYYCTTDRGYNWNYDWGQGTLVTVSS
notes: VHH-Fc fusion in assay
B27: TIGIT-SC18 (Fc fusion)
VHH: EVQLVESGGGLVQPGGSLRLSCAASGFSLDYYAMGWFRQAPGKEREVVAIIDTNGDNTLYADSVKGRFTISADNSKNTAYLQMNSLKPEDTAVYYCARGRGYGDYVGAYWGQGTLVTVSS
notes: VHH-Fc fusion in assay
B28: TIGIT-SC81 (Fc fusion)
VHH: EVQLVESGGGLVQPGGSLRLSCAASGRSFKDDAMGWFRQAPGKEREFVAAISWSGDSTHYADSVKGRFTISADNSKNTAYLQMNSLKPEDTAVYYCARWVWASGTYWIDYWGQGTLVTVSS
notes: VHH-Fc fusion in assay
B29: TIGIT-SC154 (Fc fusion)
VHH: EVQLVESGGGLVQPGGSLRLSCAASGFAFSSDWMGWFRQAPGKEREWVASVLRGGYTWYADSVKGRFTISADNSKNTAYLQMNSLKPEDTAVYYCAGDYRGFEMAFDPWGQGTLVTVSS
notes: VHH-Fc fusion in assay
B30: TIGIT-SC67 (Fc fusion)
VHH: EVQLVESGGGLVQPGGSLRLSCAASGFTFDRSWMGWFRQAPGKEREWVSTIYSNGTPAYADSVKGRFTISADNSKNTAYLQMNSLKPEDTAVYYCARRGLPSYSYGMDVWGQGTLVTVSS
notes: VHH-Fc fusion in assay
B31: TIGIT-SC73 (Fc fusion)
VHH: EVQLVESGGGLVQPGGSLRLSCAASGSSFSLADYAMGWFRQAPGKEREFVAAISYNVGTTYYADSVKGRFTISADNSKNTAYLQMNSLKPEDTAVYYCARWSAKRHSDTMTYYMDVWGQGTLVTVSS
notes: VHH-Fc fusion in assay

These binders were tested against T1, recombinant human TIGIT (assay: SPR Carterra, average).
Experimental: Binding affinities of VHH-Fc proteins to recombinant human TIGIT were measured by SPR using a Carterra instrument (Table 10A). […] Average values reported from measurements from 1-2 samples.

Binder	Kd [nM]	koff [s⁻¹]	kon [M⁻¹ s⁻¹]
B1	17.7	0.00175	101000
B2	19.2	0.0118	631000
B3	21.7	0.0101	465000
B4	22.1	0.00274	124000
B5	51	0.00531	105000
B6	61.3	0.00807	142000
B7	20.4	0.00254	209000
B8	99.8	0.0212	212000
B9	19.7	0.00367	196000
B10	66.1	0.00478	67600
B11	23.7	0.00507	214000
B12	62.5	0.00484	93300
B13	47.9	0.00149	31200
B14	24.3	0.0015	78400
B15	883	0.00528	8880
B16	18.6	0.013	871000

Binder	Kd [nM]	koff [s⁻¹]	kon [M⁻¹ s⁻¹]
B17	32.8	0.0164	501000
B18	19.6	0.00343	207000
B19	16.8	0.00479	285000
B20	17.1	0.00126	74100
B21	15.6	0.0157	1e+06
B22	36.4	0.00285	78400
B23	16.6	0.00243	147000
B24	17.7	0.00118	70300
B25	21.3	0.00349	164000
B26	80.3	0.00621	141000
B27	16.3	0.00225	141000
B28	15.3	0.00233	169000
B29	22.5	0.00219	130000
B30	18	0.00402	224000
B31	21.8	0.00276	126000
